Laboratory results as given in patent publication CN102127167A (SUZHOU IND PARK CHENJIAN ANTIBODY GROUP PHARMACEUTICAL DEV …, dated 2011).
Values joined by “and” are separate entries in the source; they are usually repeats but may differ in a detail not shown here. Identical values can stand only once.

B1: 抗人TNFa抗体-01 (antibody, human IgG1, kappa)
heavy: not shown
light: EIVLTQSPDFQSVTPKEKVTITCRASQFVGYSIHWYQQKPDQSPKLLIKYASESRSGVPSRFSGSGSGTDFTLTINSLEAEDAATYYCQQSHSWHFTFGQGTKLEIKRTVAAPSVFIFPPSDEQLKSGTASVVCLLNNFYPREAKVQWKVDNALQSGNSQESVTEQDSKDSTYSLSSTLTLSKADYEKHKVYACEVTHQGLSSPVTKSFNRGEC
notes: also called 抗人TNFa-01; pCI-TNF-01
B2: 抗人TNFa抗体-02 (antibody, human IgG1, kappa)
heavy: not shown
light: B1 light
notes: Full-length human IgG1 made in CHO cells; Same doubt about plain or PEGylated form as for m1; also called 抗人TNFa-02; pCI-TNF-02

What was measured:
人TNFα [1] = biological target: T1, 人TNFα (human, UniProt P01375 77-233); assay: cell-based or functional assay
人TNFα [2] = biological target: T1, 人TNFα; assay: ELISA, plate coated at 0.1 ug/well, antibody dilution series
人TNFα [3] = biological target: T1, 人TNFα; assay: SPR (Biacore), TNFa coupled to the chip, antibody as analyte
人TNFα [4] = biological target: T1, 人TNFα; assay: cell-based or functional assay; remark: listed apart in the source

T1 sequence (P01375 77-233 limits assumed): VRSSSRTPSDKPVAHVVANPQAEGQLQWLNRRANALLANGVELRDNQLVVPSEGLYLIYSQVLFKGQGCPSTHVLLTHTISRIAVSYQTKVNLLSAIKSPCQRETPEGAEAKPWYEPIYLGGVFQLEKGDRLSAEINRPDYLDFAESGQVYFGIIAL

Binder	IC50 relative to humira, L929细胞保护试验 (人TNFα [1])	neutralising activity relative to humira, L929细胞保护试验 (人TNFα [1])	lowest detected concentration relative to humira (人TNFα [2])	Kd (人TNFα [3])	koff (人TNFα [3])	kon (人TNFα [3])	IC50(pM), L929细胞保护试验 (人TNFα [4])	IC50(pM), L929细胞保护试验, 平均值 (人TNFα [4])
B1	~0.2 fold of humira IC50	~5 fold of humira	0.5 fold of humira	0.326 nM	0.000185 s⁻¹	568000 M⁻¹ s⁻¹	0.56 pM and 0.938 pM and 0.46 pM	0.51 pM
B2	~0.1 fold of humira IC50	~10 fold of humira	0.5 fold of humira	0.33 nM	0.000188 s⁻¹	571000 M⁻¹ s⁻¹	0.34 pM and 0.25 pM and 0.234 pM	0.275 pM
